Assay results from patent US20240270846A1 (published 2024).
Where a chain is given by its changes, count along the chain named. In names and notes the source's numbering stands.

B1: CE115HA000 G100bL one-arm antibody (antibody, human IgG1, kappa, L234A L235A, N297A, name in Kabat numbering)
heavy: QVQLVESGGGVVQPGRSLRLSCAASGFTFSNAWMHWVRQAPGKGLEWVAQIKAKSNNYATYYAESVKGRFTISRDDSKNSLYLQMNSLKTEDTAVYYCRYVHYGAYYLVDAWGQGTTVTVSSASTKGPSVFPLAPSSKSTSGGTAALGCLVKDYFPEPVTVSWNSGALTSGVHTFPAVLQSSGLYSLSSVVTVPSSSLGTQTYICNVNHKPSNTKVDKKVEPKSCDKTHTCPPCPAPEAAGGPSVFLFPPKPKDTLMISRTPEVTCVVVDVSHEDPEVKFNWYVDGVEVHNAKTKPREEQYASTYRVVSVLTVLHQDWLNGKEYKCKVSNKALPAPIEKTISKAKGQPREPQVYTLPPSRCELTKNQVSLSCAVKGFYPSDIAVEWESNGQPENNYKTTPPVLDSDGSFFLVSKLTVDKSRWQQGNVFSCSVMHEALHNHYTQKSLSLSPDYKDDDDK
chain: EPKSSDKTHTCPPCPAPELLGGPSVFLFPPKPKDTLMISRTPEVTCVVVDVSHEDPEVKFNWYVDGVEVHNAKTKPREEQYNSTYRVVSVLTVLHQDWLNGKEYKCKVSNKALPAPIEKTISKAKGQPREPQVCTLPPSRDELTKNQVSLWCLVKGFYPSDIAVEWESNGQPENNYKTTPPVLDSDGSFFLYSKLTVDKSRWQQGNVFSCSVMHEALHNRYTQKSLSLSP
light: DIVMTQSPLSLPVTPGEPASISCRSSQSLVHSNRNTYLHWYQQKPGQAPRLLIYKVSNRFSGVPDRFSGSGSGTDFTLKISRVEAEDVGVYYCGQGTQVPYTFGQGTKLEIKRTVAAPSVFIFPPSDEQLKSGTASVVCLLNNFYPREAKVQWKVDNALQSGNSQESVTEQDSKDSTYSLSSTLTLSKADYEKHKVYACEVTHQGLSSPVTKSFNRGEC
notes: one-arm antibody (one Fab)
B2: CE115HA000 H96G one-arm antibody (antibody, human IgG1, kappa, L234A L235A, N297A, name in Kabat numbering)
heavy: B1 heavy with H102G, L108G
chain: B1 chain
light: B1 light
notes: one-arm antibody (one Fab)
B3: CE115HA000 V95D one-arm antibody (antibody, human IgG1, kappa, L234A L235A, N297A, name in Kabat numbering)
heavy: B1 heavy with V101D, L108G
chain: B1 chain
light: B1 light
notes: one-arm antibody (one Fab)
B4: CE115HA000 H96Q one-arm antibody (antibody, human IgG1, kappa, L234A L235A, N297A, name in Kabat numbering)
heavy: B1 heavy with H102Q, L108G
chain: B1 chain
light: B1 light
notes: one-arm antibody (one Fab)
B5: CE115HA000 H96K one-arm antibody (antibody, human IgG1, kappa, L234A L235A, N297A, name in Kabat numbering)
heavy: B1 heavy with H102K, L108G
chain: B1 chain
light: B1 light
notes: one-arm antibody (one Fab)
B6: CE115HA000 V95A one-arm antibody (antibody, human IgG1, kappa, L234A L235A, N297A, name in Kabat numbering)
heavy: B1 heavy with V101A, L108G
chain: B1 chain
light: B1 light
notes: one-arm antibody (one Fab)
B7: CE115HA000 S77T one-arm antibody (antibody, human IgG1, kappa, L234A L235A, N297A, name in Kabat numbering)
heavy: B1 heavy with S80T, L108G
chain: B1 chain
light: B1 light
notes: one-arm antibody (one Fab)
B8: CE115HA000 N54L one-arm antibody (antibody, human IgG1, kappa, L234A L235A, N297A, name in Kabat numbering)
heavy: B1 heavy with N57L, L108G
chain: B1 chain
light: B1 light
notes: one-arm antibody (one Fab)
B9: CE115HA000 K75R one-arm antibody (antibody, human IgG1, kappa, L234A L235A, N297A, name in Kabat numbering)
heavy: B1 heavy with K78R, L108G
chain: B1 chain
light: B1 light
notes: one-arm antibody (one Fab)
B10: CE115HA000 N76S one-arm antibody (antibody, human IgG1, kappa, L234A L235A, N297A, name in Kabat numbering)
heavy: B1 heavy with N79S, L108G
chain: B1 chain
light: B1 light
notes: one-arm antibody (one Fab)
B11: CE115HA000 H96L one-arm antibody (antibody, human IgG1, kappa, L234A L235A, N297A, name in Kabat numbering)
heavy: B1 heavy with H102L, L108G
chain: B1 chain
light: B1 light
notes: one-arm antibody (one Fab)
B12: CE115HA000 S62P one-arm antibody (antibody, human IgG1, kappa, L234A L235A, N297A, name in Kabat numbering)
heavy: B1 heavy with S65P, L108G
chain: B1 chain
light: B1 light
notes: one-arm antibody (one Fab)
B13: CE115HA000 K64Q one-arm antibody (antibody, human IgG1, kappa, L234A L235A, N297A, name in Kabat numbering)
heavy: B1 heavy with K67Q, L108G
chain: B1 chain
light: B1 light
notes: one-arm antibody (one Fab)
B14: CE115HA000 S74P one-arm antibody (antibody, human IgG1, kappa, L234A L235A, N297A, name in Kabat numbering)
heavy: B1 heavy with S77P, L108G
chain: B1 chain
light: B1 light
notes: one-arm antibody (one Fab)
B15: CE115HA000 N53W one-arm antibody (antibody, human IgG1, kappa, L234A L235A, N297A, name in Kabat numbering)
heavy: B1 heavy with N56W, L108G
chain: B1 chain
light: B1 light
notes: one-arm antibody (one Fab)
B16: CE115HA000 T57N one-arm antibody (antibody, human IgG1, kappa, L234A L235A, N297A, name in Kabat numbering)
heavy: B1 heavy with T60N, L108G
chain: B1 chain
light: B1 light
notes: one-arm antibody (one Fab)
B17: CE115HA000 N54S one-arm antibody (antibody, human IgG1, kappa, L234A L235A, N297A, name in Kabat numbering)
heavy: B1 heavy with N57S, L108G
chain: B1 chain
light: B1 light
notes: one-arm antibody (one Fab)
B18: CE115HA000 H96S one-arm antibody (antibody, human IgG1, kappa, L234A L235A, N297A, name in Kabat numbering)
heavy: B1 heavy with H102S, L108G
chain: B1 chain
light: B1 light
notes: one-arm antibody (one Fab)
B19: CE115HA000 N53S one-arm antibody (antibody, human IgG1, kappa, L234A L235A, N297A, name in Kabat numbering)
heavy: B1 heavy with N56S, L108G
chain: B1 chain
light: B1 light
notes: one-arm antibody (one Fab)
B20: CE115HA000 N54Y one-arm antibody (antibody, human IgG1, kappa, L234A L235A, N297A, name in Kabat numbering)
heavy: B1 heavy with N57Y, L108G
chain: B1 chain
light: B1 light
notes: one-arm antibody (one Fab)
B21: CE115HA000 N53Y one-arm antibody (antibody, human IgG1, kappa, L234A L235A, N297A, name in Kabat numbering)
heavy: B1 heavy with N56Y, L108G
chain: B1 chain
light: B1 light
notes: one-arm antibody (one Fab)
B22: CE115HA000 K75T one-arm antibody (antibody, human IgG1, kappa, L234A L235A, N297A, name in Kabat numbering)
heavy: B1 heavy with K78T, L108G
chain: B1 chain
light: B1 light
notes: one-arm antibody (one Fab)
B23: CE115HA000 N82aD one-arm antibody (antibody, human IgG1, kappa, L234A L235A, N297A, name in Kabat numbering)
heavy: B1 heavy with N86D, L108G
chain: B1 chain
light: B1 light
notes: one-arm antibody (one Fab)
B24: CE115HA000 H96R one-arm antibody (antibody, human IgG1, kappa, L234A L235A, N297A, name in Kabat numbering)
heavy: B1 heavy with H102R, L108G
chain: B1 chain
light: B1 light
notes: one-arm antibody (one Fab)
B25: CE115HA000 L78I one-arm antibody (antibody, human IgG1, kappa, L234A L235A, N297A, name in Kabat numbering)
heavy: B1 heavy with L81I, L108G
chain: B1 chain
light: B1 light
notes: one-arm antibody (one Fab)
B26: CE115HA000 K64S one-arm antibody (antibody, human IgG1, kappa, L234A L235A, N297A, name in Kabat numbering)
heavy: B1 heavy with K67S, L108G
chain: B1 chain
light: B1 light
notes: one-arm antibody (one Fab)
B27: CE115HA000 G100bY one-arm antibody (antibody, human IgG1, kappa, L234A L235A, N297A, name in Kabat numbering)
heavy: B1 heavy with L108Y
chain: B1 chain
light: B1 light
notes: one-arm antibody (one Fab)
B28: CE115HA000 G100bS one-arm antibody (antibody, human IgG1, kappa, L234A L235A, N297A, name in Kabat numbering)
heavy: B1 heavy with L108S
chain: B1 chain
light: B1 light
notes: one-arm antibody (one Fab)
B29: CE115HA000 H96P one-arm antibody (antibody, human IgG1, kappa, L234A L235A, N297A, name in Kabat numbering)
heavy: B1 heavy with H102P, L108G
chain: B1 chain
light: B1 light
notes: one-arm antibody (one Fab)
B30: CE115HA000 N54Q one-arm antibody (antibody, human IgG1, kappa, L234A L235A, N297A, name in Kabat numbering)
heavy: B1 heavy with N57Q, L108G
chain: B1 chain
light: B1 light
notes: one-arm antibody (one Fab)
B31: CE115HA000 Q105E one-arm antibody (antibody, human IgG1, kappa, L234A L235A, N297A, name in Kabat numbering)
heavy: B1 heavy with L108G, Q114E
chain: B1 chain
light: B1 light
notes: one-arm antibody (one Fab)
B32: CE115HA000 H96Y one-arm antibody (antibody, human IgG1, kappa, L234A L235A, N297A, name in Kabat numbering)
heavy: B1 heavy with H102Y, L108G
chain: B1 chain
light: B1 light
notes: one-arm antibody (one Fab)
B33: CE115HA000 N53Q one-arm antibody (antibody, human IgG1, kappa, L234A L235A, N297A, name in Kabat numbering)
heavy: B1 heavy with N56Q, L108G
chain: B1 chain
light: B1 light
notes: one-arm antibody (one Fab)

Target: T1, CD3 epsilon homodimer protein (UniProt P07766 23-126)
T1 construct: Immobilized on Sensor chip CM4 by amine coupling; construct not described; also called CD3 (CD3 epsilon)
Assay: SPR Biacore T200, CD3 epsilon homodimer on CM4 chip, antibody as analyte;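 further: Amine-coupled CD3 epsilon homodimer, run at 25 °C in HBS-EP+ buffer, ratio is bound amount of each single-residue H chain variant over that of the parent antibody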

T1 sequence (P07766 23-126): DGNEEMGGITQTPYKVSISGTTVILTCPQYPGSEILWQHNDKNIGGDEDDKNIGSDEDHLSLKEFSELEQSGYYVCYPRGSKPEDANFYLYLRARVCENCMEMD

Compared with B1, B2 is higher in “ratio of amounts bound (Y/X vs CE115HA000)” value (“ratio of amounts bound” for short): 0.27 for the first, 0.43 for the second.

First: B3
Second: B4
The “ratio of amounts bound” value of the first is lower: 0.24 for the first, 0.42 for the second.

First: B5
Second: B6
The “ratio of amounts bound” value of the first is higher: 0.35 for the first, 0.11 for the second.

First: B7
Second: B8
The “ratio of amounts bound” value of the first is lower: 0.9 for the first, 0.94 for the second.

Compared with B9, B10 is lower in “ratio of amounts bound” value: 1.01 for the first, 0.92 for the second.

Compared with B11, B12 is higher in “ratio of amounts bound” value: 0.14 for the first, 1 for the second.

First: B13
Second: B14
The “ratio of amounts bound” value of the first is lower: 0.89 for the first, 0.91 for the second.

Compared with B15, B16 is higher in “ratio of amounts bound” value: 0.88 for the first, 0.97 for the second.

Compared with B17, B18 is lower in “ratio of amounts bound” value: 0.84 for the first, 0.44 for the second.

Going from B19 to B20, the “ratio of amounts bound” value rises from 0.83 to 1.09.

Compared with B21, B22 is higher in “ratio of amounts bound” value: 0.63 for the first, 0.84 for the second.

First: B23
Second: B24
The “ratio of amounts bound” value of the first is higher: 0.73 for the first, 0.46 for the second.

First: B25
Second: B26
The “ratio of amounts bound” value of the first is higher: 1.34 for the first, 0.84 for the second.

Compared with B27, B28 is higher in “ratio of amounts bound” value: 0.23 for the first, 0.52 for the second.

Going from B29 to B30, the “ratio of amounts bound” value rises from 0.12 to 0.84.

First: B31
Second: B32
The “ratio of amounts bound” value of the first is higher: 0.94 for the first, 0.17 for the second.

B33 was tested, and the “ratio of amounts bound” value was 1.1.
